Results taken from article PMC9482650, “Quantitative fragmentomics allow affinity mapping of interactomes” (Nature Communications, 2022).

T1: LNX2_4, Q8N448
T1 sequence (Q8N448 595-690, limits assumed, looked up): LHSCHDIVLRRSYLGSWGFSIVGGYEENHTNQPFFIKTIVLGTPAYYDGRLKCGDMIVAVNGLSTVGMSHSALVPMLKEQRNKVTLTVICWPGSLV

T2: MAGI2_1, Q86UL8
T2 sequence (Q86UL8 12-111, limits assumed, looked up): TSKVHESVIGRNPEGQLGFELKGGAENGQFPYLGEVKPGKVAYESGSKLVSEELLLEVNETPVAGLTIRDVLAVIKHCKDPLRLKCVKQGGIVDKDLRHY

T3: MPDZ_3, O75970
T3 sequence (O75970 372-473, limits assumed, looked up): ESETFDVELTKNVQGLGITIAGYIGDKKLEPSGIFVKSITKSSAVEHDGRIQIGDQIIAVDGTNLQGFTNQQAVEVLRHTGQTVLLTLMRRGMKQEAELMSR

T4: MPDZ_6, O75970
T4 sequence (O75970 1003-1099, limits assumed, looked up): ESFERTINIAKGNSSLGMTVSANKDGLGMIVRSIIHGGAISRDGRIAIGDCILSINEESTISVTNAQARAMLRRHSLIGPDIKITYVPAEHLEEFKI

T5: PDZD2_3, O15018
T5 sequence (O15018 581-682, limits assumed, looked up): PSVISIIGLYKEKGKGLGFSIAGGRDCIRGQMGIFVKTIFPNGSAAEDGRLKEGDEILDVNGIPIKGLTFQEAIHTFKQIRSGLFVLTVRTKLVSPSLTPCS

T6: PDZD2_5, O15018
T6 sequence (O15018 2617-2716, limits assumed, looked up): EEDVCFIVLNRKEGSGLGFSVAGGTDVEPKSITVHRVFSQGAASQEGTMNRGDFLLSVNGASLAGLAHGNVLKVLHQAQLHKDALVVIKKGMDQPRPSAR

T7: PDZD2_6, O15018
T7 sequence (O15018 2745-2839, limits assumed, looked up): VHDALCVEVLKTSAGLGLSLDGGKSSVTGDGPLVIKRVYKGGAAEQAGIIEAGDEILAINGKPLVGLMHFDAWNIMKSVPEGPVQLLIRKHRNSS

T8: PDZD7_2, Q9H5P4
T8 sequence (Q9H5P4 205-303, limits assumed, looked up): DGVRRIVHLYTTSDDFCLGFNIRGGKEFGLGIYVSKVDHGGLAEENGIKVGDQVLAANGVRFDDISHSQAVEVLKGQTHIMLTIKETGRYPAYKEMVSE

T9: SHANK2, Q9UPX8
T9 sequence (Q9UPX8 621-730, limits assumed, looked up): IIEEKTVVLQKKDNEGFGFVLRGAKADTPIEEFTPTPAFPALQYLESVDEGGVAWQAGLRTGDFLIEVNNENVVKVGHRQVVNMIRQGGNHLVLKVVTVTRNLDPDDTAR

T10: SHROOM2, Q13796
T10 sequence (Q13796 21-118, limits assumed, looked up): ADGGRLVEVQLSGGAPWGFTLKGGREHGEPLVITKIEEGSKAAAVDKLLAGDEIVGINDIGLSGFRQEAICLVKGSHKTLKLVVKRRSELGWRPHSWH

T11: SYNPO2L, Q9H987
T11 sequence (Q9H987 1-98, limits assumed, looked up): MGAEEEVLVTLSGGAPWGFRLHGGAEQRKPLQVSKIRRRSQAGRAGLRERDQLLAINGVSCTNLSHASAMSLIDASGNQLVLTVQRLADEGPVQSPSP

T12: TJP3_2, O95049
T12 sequence (O95049 190-282, limits assumed, looked up): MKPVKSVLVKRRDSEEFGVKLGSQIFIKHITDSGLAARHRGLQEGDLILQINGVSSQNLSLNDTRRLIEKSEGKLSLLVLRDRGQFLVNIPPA

T13: USH1C_3, Q9Y6N9
T13 sequence (Q9Y6N9 447-547, limits assumed, looked up): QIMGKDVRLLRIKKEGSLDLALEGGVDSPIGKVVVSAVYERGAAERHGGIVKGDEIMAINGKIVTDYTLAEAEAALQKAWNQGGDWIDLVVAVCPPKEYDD


biological target: CARD14, Q9BXL6; test: holdup assay; parameters: key: below the threshold = too weak to quantify, mostly under pKd 3.1 to 4; conditions: plain residues with an end cap or a label only (N-terminal biotin on a linker: ttds)
Sequence (Q9BXL6 558-663): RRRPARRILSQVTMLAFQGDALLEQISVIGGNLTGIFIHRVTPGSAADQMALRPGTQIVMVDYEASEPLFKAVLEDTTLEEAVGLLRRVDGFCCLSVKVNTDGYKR

| Binder | pKd |
| --- | --- |
| KLVIKTETTV [RASSF6, Q6ZTQ3] | below the threshold |
| PPRQRSETQV [HPV82-E6, Q9IR59] | below the threshold |

biological target: LIMK1, P53667; test: holdup assay; parameters: key: below the threshold = too weak to quantify, mostly under pKd 3.1 to 4; conditions: plain residues with an end cap or a label only (N-terminal biotin on a linker: ttds)
Sequence (P53667 155-268): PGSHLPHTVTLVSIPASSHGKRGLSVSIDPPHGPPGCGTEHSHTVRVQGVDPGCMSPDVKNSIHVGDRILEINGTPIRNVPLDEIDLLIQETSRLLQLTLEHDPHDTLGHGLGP

| Binder | pKd |
| --- | --- |
| KLVIKTETTV [RASSF6, Q6ZTQ3] | 4.37 |

biological target: LMO7, Q8WWI1; test: holdup assay; parameters: key: below the threshold = too weak to quantify, mostly under pKd 3.1 to 4; conditions: plain residues with an end cap or a label only (N-terminal biotin on a linker: ttds)
Sequence (Q8WWI1 1037-1138): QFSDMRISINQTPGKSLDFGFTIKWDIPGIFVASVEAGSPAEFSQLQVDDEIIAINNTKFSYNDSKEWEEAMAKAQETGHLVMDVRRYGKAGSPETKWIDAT

| Binder | pKd |
| --- | --- |
| KLVIKTETTV [RASSF6, Q6ZTQ3] | below the threshold |
| PPRQRSETQV [HPV82-E6, Q9IR59] | below the threshold |

biological target: T1, LNX2_4, Q8N448; test: holdup assay; parameters: key: below the threshold = too weak to quantify, mostly under pKd 3.1 to 4; conditions: plain residues with an end cap or a label only (N-terminal biotin on a linker: ttds)

| Binder | pKd |
| --- | --- |
| KLVIKTETTV [RASSF6, Q6ZTQ3] | below the threshold |
| PPRQRSETQV [HPV82-E6, Q9IR59] | below the threshold |

biological target: MAGI1_5, Q96QZ7; test: holdup assay; parameters: key: below the threshold = too weak to quantify, mostly under pKd 3.1 to 4; conditions: plain residues with an end cap or a label only (N-terminal biotin on a linker: ttds)
Sequence (Q96QZ7 986-1098): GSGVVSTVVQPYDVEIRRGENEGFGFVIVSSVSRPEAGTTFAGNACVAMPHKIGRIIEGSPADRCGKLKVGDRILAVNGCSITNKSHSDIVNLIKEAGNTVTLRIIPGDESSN

| Binder | pKd |
| --- | --- |
| KLVIKTETTV [RASSF6, Q6ZTQ3] | 4.23 |
| PPRQRSETQV [HPV82-E6, Q9IR59] | 4.37 |

biological target: T2, MAGI2_1, Q86UL8; test: holdup assay; parameters: key: below the threshold = too weak to quantify, mostly under pKd 3.1 to 4; conditions: plain residues with an end cap or a label only (N-terminal biotin on a linker: ttds)

| Binder | pKd |
| --- | --- |
| KLVIKTETTV [RASSF6, Q6ZTQ3] | below the threshold |
| PPRQRSETQV [HPV82-E6, Q9IR59] | below the threshold |

biological target: T3, MPDZ_3, O75970; test: holdup assay; parameters: key: below the threshold = too weak to quantify, mostly under pKd 3.1 to 4; conditions: plain residues with an end cap or a label only (N-terminal biotin on a linker: ttds)

| Binder | pKd |
| --- | --- |
| KLVIKTETTV [RASSF6, Q6ZTQ3] | below the threshold |
| PPRQRSETQV [HPV82-E6, Q9IR59] | below the threshold |

biological target: T4, MPDZ_6, O75970; test: holdup assay; parameters: key: below the threshold = too weak to quantify, mostly under pKd 3.1 to 4; conditions: plain residues with an end cap or a label only (N-terminal biotin on a linker: ttds)

| Binder | pKd |
| --- | --- |
| KLVIKTETTV [RASSF6, Q6ZTQ3] | below the threshold |
| PPRQRSETQV [HPV82-E6, Q9IR59] | below the threshold |

biological target: NHERF2_1, Q15599; test: holdup assay; parameters: key: below the threshold = too weak to quantify, mostly under pKd 3.1 to 4; conditions: plain residues with an end cap or a label only (N-terminal biotin on a linker: ttds)
Sequence (Q15599 9-91): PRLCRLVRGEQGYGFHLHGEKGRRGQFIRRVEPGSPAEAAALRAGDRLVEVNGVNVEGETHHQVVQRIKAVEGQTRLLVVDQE

| Binder | pKd |
| --- | --- |
| KLVIKTETTV [RASSF6, Q6ZTQ3] | below the threshold |
| PPRQRSETQV [HPV82-E6, Q9IR59] | below the threshold |

biological target: O60759; test: holdup assay; parameters: key: below the threshold = too weak to quantify, mostly under pKd 3.1 to 4; conditions: plain residues with an end cap or a label only (N-terminal biotin on a linker: ttds)

| Binder | pKd |
| --- | --- |
| KLVIKTETTV [RASSF6, Q6ZTQ3] | below the threshold |
| PPRQRSETQV [HPV82-E6, Q9IR59] | below the threshold |

biological target: PARD3B_2, Q8TEW8; test: holdup assay; parameters: key: below the threshold = too weak to quantify, mostly under pKd 3.1 to 4; conditions: plain residues with an end cap or a label only (N-terminal biotin on a linker: ttds)
Sequence (Q8TEW8 376-471): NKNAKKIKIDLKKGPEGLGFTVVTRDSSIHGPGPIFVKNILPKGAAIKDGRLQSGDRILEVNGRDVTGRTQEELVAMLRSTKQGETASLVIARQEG

| Binder | pKd |
| --- | --- |
| KLVIKTETTV [RASSF6, Q6ZTQ3] | below the threshold |
| PPRQRSETQV [HPV82-E6, Q9IR59] | below the threshold |

biological target: T5, PDZD2_3, O15018; test: holdup assay; parameters: key: below the threshold = too weak to quantify, mostly under pKd 3.1 to 4; conditions: plain residues with an end cap or a label only (N-terminal biotin on a linker: ttds)

| Binder | pKd |
| --- | --- |
| KLVIKTETTV [RASSF6, Q6ZTQ3] | below the threshold |
| PPRQRSETQV [HPV82-E6, Q9IR59] | below the threshold |

biological target: T6, PDZD2_5, O15018; test: holdup assay; parameters: key: below the threshold = too weak to quantify, mostly under pKd 3.1 to 4; conditions: plain residues with an end cap or a label only (N-terminal biotin on a linker: ttds)

| Binder | pKd |
| --- | --- |
| KLVIKTETTV [RASSF6, Q6ZTQ3] | below the threshold |
| PPRQRSETQV [HPV82-E6, Q9IR59] | below the threshold |

biological target: T7, PDZD2_6, O15018; test: holdup assay; parameters: key: below the threshold = too weak to quantify, mostly under pKd 3.1 to 4; conditions: plain residues with an end cap or a label only (N-terminal biotin on a linker: ttds)

| Binder | pKd |
| --- | --- |
| KLVIKTETTV [RASSF6, Q6ZTQ3] | below the threshold |
| PPRQRSETQV [HPV82-E6, Q9IR59] | below the threshold |

biological target: T8, PDZD7_2, Q9H5P4; test: holdup assay; parameters: key: below the threshold = too weak to quantify, mostly under pKd 3.1 to 4; conditions: plain residues with an end cap or a label only (N-terminal biotin on a linker: ttds)

| Binder | pKd |
| --- | --- |
| KLVIKTETTV [RASSF6, Q6ZTQ3] | below the threshold |
| PPRQRSETQV [HPV82-E6, Q9IR59] | below the threshold |

biological target: PDZD9, Q8IXQ8; test: holdup assay; parameters: key: below the threshold = too weak to quantify, mostly under pKd 3.1 to 4; conditions: plain residues with an end cap or a label only (N-terminal biotin on a linker: ttds)
Sequence (Q8IXQ8 23-120): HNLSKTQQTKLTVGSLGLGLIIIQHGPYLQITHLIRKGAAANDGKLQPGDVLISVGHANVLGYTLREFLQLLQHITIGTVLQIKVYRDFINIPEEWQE

| Binder | pKd |
| --- | --- |
| KLVIKTETTV [RASSF6, Q6ZTQ3] | below the threshold |
| PPRQRSETQV [HPV82-E6, Q9IR59] | below the threshold |

biological target: PDZRN4_2, Q6ZMN7; test: holdup assay; parameters: key: below the threshold = too weak to quantify, mostly under pKd 3.1 to 4; conditions: plain residues with an end cap or a label only (N-terminal biotin on a linker: ttds)
Sequence (Q6ZMN7 389-498): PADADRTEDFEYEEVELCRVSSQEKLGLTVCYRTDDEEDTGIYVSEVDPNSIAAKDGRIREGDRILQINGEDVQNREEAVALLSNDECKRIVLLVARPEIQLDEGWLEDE

| Binder | pKd |
| --- | --- |
| KLVIKTETTV [RASSF6, Q6ZTQ3] | below the threshold |
| PPRQRSETQV [HPV82-E6, Q9IR59] | below the threshold |

biological target: Q8TEW0; test: holdup assay; parameters: key: below the threshold = too weak to quantify, mostly under pKd 3.1 to 4; conditions: plain residues with an end cap or a label only (N-terminal biotin on a linker: ttds)

| Binder | pKd |
| --- | --- |
| KLVIKTETTV [RASSF6, Q6ZTQ3] | below the threshold |
| PPRQRSETQV [HPV82-E6, Q9IR59] | below the threshold |

biological target: Q96HC4; test: holdup assay; parameters: key: below the threshold = too weak to quantify, mostly under pKd 3.1 to 4; conditions: plain residues with an end cap or a label only (N-terminal biotin on a linker: ttds)

| Binder | pKd |
| --- | --- |
| KLVIKTETTV [RASSF6, Q6ZTQ3] | below the threshold |
| PPRQRSETQV [HPV82-E6, Q9IR59] | below the threshold |

biological target: SCRIB_4, Q14160; test: holdup assay; parameters: key: below the threshold = too weak to quantify, mostly under pKd 3.1 to 4; conditions: plain residues with an end cap or a label only (N-terminal biotin on a linker: ttds)
Sequence (Q14160 1095-1204): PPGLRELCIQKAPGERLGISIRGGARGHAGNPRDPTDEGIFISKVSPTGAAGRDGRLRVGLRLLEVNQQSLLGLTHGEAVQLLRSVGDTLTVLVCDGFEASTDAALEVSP

| Binder | pKd |
| --- | --- |
| KLVIKTETTV [RASSF6, Q6ZTQ3] | below the threshold |
| PPRQRSETQV [HPV82-E6, Q9IR59] | below the threshold |

biological target: T9, SHANK2, Q9UPX8; test: holdup assay; parameters: key: below the threshold = too weak to quantify, mostly under pKd 3.1 to 4; conditions: plain residues with an end cap or a label only (N-terminal biotin on a linker: ttds)

| Binder | pKd |
| --- | --- |
| KLVIKTETTV [RASSF6, Q6ZTQ3] | below the threshold |
| PPRQRSETQV [HPV82-E6, Q9IR59] | below the threshold |

biological target: T10, SHROOM2, Q13796; test: holdup assay; parameters: key: below the threshold = too weak to quantify, mostly under pKd 3.1 to 4; conditions: plain residues with an end cap or a label only (N-terminal biotin on a linker: ttds)

| Binder | pKd |
| --- | --- |
| KLVIKTETTV [RASSF6, Q6ZTQ3] | below the threshold |
| PPRQRSETQV [HPV82-E6, Q9IR59] | below the threshold |

biological target: T11, SYNPO2L, Q9H987; test: holdup assay; parameters: key: below the threshold = too weak to quantify, mostly under pKd 3.1 to 4; conditions: plain residues with an end cap or a label only (N-terminal biotin on a linker: ttds)

| Binder | pKd |
| --- | --- |
| KLVIKTETTV [RASSF6, Q6ZTQ3] | below the threshold |
| PPRQRSETQV [HPV82-E6, Q9IR59] | below the threshold |

biological target: T12, TJP3_2, O95049; test: holdup assay; parameters: key: below the threshold = too weak to quantify, mostly under pKd 3.1 to 4; conditions: plain residues with an end cap or a label only (N-terminal biotin on a linker: ttds)

| Binder | pKd |
| --- | --- |
| KLVIKTETTV [RASSF6, Q6ZTQ3] | below the threshold |
| PPRQRSETQV [HPV82-E6, Q9IR59] | below the threshold |

biological target: T13, USH1C_3, Q9Y6N9; test: holdup assay; parameters: key: below the threshold = too weak to quantify, mostly under pKd 3.1 to 4; conditions: plain residues with an end cap or a label only (N-terminal biotin on a linker: ttds)

| Binder | pKd |
| --- | --- |
| KLVIKTETTV [RASSF6, Q6ZTQ3] | below the threshold |
| PPRQRSETQV [HPV82-E6, Q9IR59] | below the threshold |
